From patent US20060263802A1 (CRUCELL HOLLAND B V, published 2006)

Columns and labels:
Test in all cases: PEPSCAN ELISA, looped peptide, antibody 10 µg/ml
[1] = target: looped/cyclic peptide … (rabies virus strain ERA)
[2] = target: looped/cyclic peptide … (rabies virus strain ERA); remark: listed apart in the source
[3] = target: looped/cyclic peptide … (rabies virus strain ERA); remark: listed apart in the source
[4] = target: looped/cyclic peptide … (rabies virus strain ERA); remark: listed apart in the source
[5] = target: looped/cyclic peptide … (rabies virus strain ERA); remark: listed apart in the source
[6] = target: looped/cyclic peptide … (rabies virus strain ERA); remark: listed apart in the source
[7] = target: looped/cyclic peptide … (rabies virus strain ERA); remark: listed apart in the source
[8] = target: looped/cyclic peptide … (rabies virus strain ERA); remark: listed apart in the source
[9] = target: looped/cyclic peptide … (rabies virus strain ERA); remark: listed apart in the source
[10] = target: looped/cyclic peptide … (rabies virus strain ERA); remark: listed apart in the source
[11] = target: looped/cyclic peptide … (rabies virus strain ERA); remark: listed apart in the source
[12] = target: looped/cyclic peptide … (rabies virus strain ERA); remark: listed apart in the source
[13] = target: looped/cyclic peptide … (rabies virus strain ERA); remark: listed apart in the source
[14] = target: looped/cyclic peptide […] (rabies virus strain ERA)
[15] = target: looped/cyclic peptide … (rabies virus strain ERA); remark: listed apart in the source
[16] = target: looped/cyclic peptide … (rabies virus strain ERA); remark: listed apart in the source
[17] = target: looped/cyclic peptide … (rabies virus strain ERA); remark: listed apart in the source
[18] = target: looped/cyclic peptide … (rabies virus strain ERA); remark: listed apart in the source
[19] = target: looped/cyclic peptide … (rabies virus strain ERA); remark: listed apart in the source
[20] = target: looped/cyclic peptide … (rabies virus strain ERA); remark: listed apart in the source
[21] = target: looped/cyclic peptide … (rabies virus strain ERA); remark: listed apart in the source
[22] = target: looped/cyclic peptide … (rabies virus strain ERA); remark: listed apart in the source
[23] = target: looped/cyclic peptide … (rabies virus strain ERA); remark: listed apart in the source
[24] = target: looped/cyclic peptide … (rabies virus strain ERA); remark: listed apart in the source
[25] = target: looped/cyclic peptide … (rabies virus strain ERA); remark: listed apart in the source
[26] = target: looped/cyclic peptide … (rabies virus strain ERA); remark: listed apart in the source
[27] = target: looped/cyclic peptide … (rabies virus strain ERA); remark: listed apart in the source
[28] = target: looped/cyclic peptide … (rabies virus strain ERA); remark: listed apart in the source
[29] = target: looped/cyclic peptide … (rabies virus strain ERA); remark: listed apart in the source
[30] = target: looped/cyclic peptide … (rabies virus strain ERA); remark: listed apart in the source
[31] = target: looped/cyclic peptide … (rabies virus strain ERA); remark: listed apart in the source
[32] = target: looped/cyclic peptide … (rabies virus strain ERA); remark: listed apart in the source
[33] = target: looped/cyclic peptide … (rabies virus strain ERA); remark: listed apart in the source
[34] = target: looped/cyclic peptide … (rabies virus strain ERA); remark: listed apart in the source
[35] = target: looped/cyclic peptide … (rabies virus strain ERA); remark: listed apart in the source
[36] = target: looped/cyclic peptide … (rabies virus strain ERA); remark: listed apart in the source
[37] = target: looped/cyclic peptide … (rabies virus strain ERA); remark: listed apart in the source
[38] = target: looped/cyclic peptide … (rabies virus strain ERA); remark: listed apart in the source
[39] = target: looped/cyclic peptide … (rabies virus strain ERA); remark: listed apart in the source
[40] = target: looped/cyclic peptide DIHHLSCPNNLVVED (rabies virus strain ERA)
[41] = target: looped/cyclic peptide … (rabies virus strain ERA); remark: listed apart in the source
[42] = target: looped/cyclic peptide … (rabies virus strain ERA); remark: listed apart in the source
[43] = target: looped/cyclic peptide … (rabies virus strain ERA); remark: listed apart in the source
[44] = target: looped/cyclic peptide … (rabies virus strain ERA); remark: listed apart in the source
[45] = target: looped/cyclic peptide … (rabies virus strain ERA); remark: listed apart in the source
[46] = target: looped/cyclic peptide … (rabies virus strain ERA); remark: listed apart in the source
[47] = target: looped/cyclic peptide … (rabies virus strain ERA); remark: listed apart in the source
[48] = target: looped/cyclic peptide … (rabies virus strain ERA); remark: listed apart in the source
[49] = target: looped/cyclic peptide … (rabies virus strain ERA); remark: listed apart in the source
[50] = target: looped/cyclic peptide … (rabies virus strain ERA); remark: listed apart in the source
[51] = target: looped/cyclic peptide … (rabies virus strain ERA); remark: listed apart in the source
[52] = target: looped/cyclic peptide … (rabies virus strain ERA); remark: listed apart in the source
[53] = target: looped/cyclic peptide … (rabies virus strain ERA); remark: listed apart in the source
[54] = target: looped/cyclic peptide … (rabies virus strain ERA); remark: listed apart in the source
[55] = target: looped/cyclic peptide … (rabies virus strain ERA); remark: listed apart in the source
[56] = target: looped/cyclic peptide … (rabies virus strain ERA); remark: listed apart in the source
[57] = target: looped/cyclic peptide … (rabies virus strain ERA); remark: listed apart in the source
[58] = target: looped/cyclic peptide […] (rabies virus strain ERA); remark: listed apart in the source
[59] = target: looped/cyclic peptide … (rabies virus strain ERA); remark: listed apart in the source
[60] = target: looped/cyclic peptide … (rabies virus strain ERA); remark: listed apart in the source
[61] = target: looped/cyclic peptide … (rabies virus strain ERA); remark: listed apart in the source
[62] = target: looped/cyclic peptide … (rabies virus strain ERA); remark: listed apart in the source
[63] = target: looped/cyclic peptide … (rabies virus strain ERA); remark: listed apart in the source
[64] = target: looped/cyclic peptide … (rabies virus strain ERA); remark: listed apart in the source
[65] = target: looped/cyclic peptide … (rabies virus strain ERA); remark: listed apart in the source
[66] = target: looped/cyclic peptide … (rabies virus strain ERA); remark: listed apart in the source
[67] = target: looped/cyclic peptide … (rabies virus strain ERA); remark: listed apart in the source
[68] = target: looped/cyclic peptide … (rabies virus strain ERA); remark: listed apart in the source
[69] = target: looped/cyclic peptide … (rabies virus strain ERA); remark: listed apart in the source
[70] = target: looped/cyclic peptide … (rabies virus strain ERA); remark: listed apart in the source
[71] = target: looped/cyclic peptide … (rabies virus strain ERA); remark: listed apart in the source
[72] = target: looped/cyclic peptide … (rabies virus strain ERA); remark: listed apart in the source
[73] = target: looped/cyclic peptide … (rabies virus strain ERA); remark: listed apart in the source
[74] = target: looped/cyclic peptide … (rabies virus strain ERA); remark: listed apart in the source
[75] = target: looped/cyclic peptide … (rabies virus strain ERA); remark: listed apart in the source

B1: human monoclonal antibody CRJB (antibody, V domains shown)
VH: QITLKETGPTLVKPTQTLTLTCTFSGFSLSTSGVGVGWIRQPPGKALEWVTLIYWDDDKRYSPSLENRVTIRKDTSKNQVALTMTNMDPLDTGTYYCAHRQHISSFPWFDSWGQGTLVTVSS
VL: SYVLTQPPSVSVAPGKTARINCGGNNIEYRSVHWYQQKSGQAPVAVIYDNSDRPSGIPERFSGSKSGNTATLTISRVEAGDEADYYCQVWDISSDVVFGGGTKLTVLG
In the case of B1, the OD value [1] is reported as 77 OD, the OD value [2] is reported as 70 OD and the OD value [3] is reported as 111 OD. It also gave an OD value [4] of 54 OD, an OD value [5] of 71 OD and an OD value [6] of 71 OD. It also gave an OD value [7] of 98 OD, an OD value [8] of 68 OD and an OD value [9] of 92 OD. For the same binder, the OD value [10] was 93 OD, the OD value [11] was 74 OD and the OD value [12] was 75 OD. It also gave an OD value [13] of 83 OD, an OD value [14] of 138 OD and an OD value [15] of 69 OD. For the same binder, the OD value [16] was 75 OD, the OD value [17] was 72 OD and the OD value [18] was 55 OD. For the same binder, the OD value [19] was 72 OD, the OD value [20] was 78 OD and the OD value [21] was 80 OD. For the same binder, the OD value [22] was 118 OD, the OD value [23] was 90 OD and the OD value [24] was 88 OD. It also gave an OD value [25] of 104 OD, an OD value [26] of 82 OD and an OD value [27] of 69 OD. For the same binder, the OD value [28] was 83 OD, the OD value [29] was 65 OD and the OD value [30] was 68 OD. For the same binder, the OD value [31] was 62 OD, the OD value [32] was 63 OD and the OD value [33] was 101 OD. The OD value [34] was 60 OD, the OD value [35] was 78 OD and the OD value [36] was 79 OD. The OD value [37] was 66 OD, the OD value [38] was 73 OD and the OD value [39] was 58 OD. It also gave an OD value [40] of 48 OD, an OD value [41] of 93 OD and an OD value [42] of 93 OD. It also gave an OD value [43] of 92 OD, an OD value [44] of 60 OD and an OD value [45] of 70 OD. The OD value [46] was 93 OD, the OD value [47] was 90 OD and the OD value [48] was 92 OD. For the same binder, the OD value [49] was 85 OD, the OD value [50] was 64 OD and the OD value [51] was 76 OD. It also gave an OD value [52] of 83 OD, an OD value [53] of 65 OD and an OD value [54] of 58 OD. The OD value [55] was 45 OD, the OD value [56] was 60 OD and the OD value [57] was 77 OD. For the same binder, the OD value [58] was 71 OD, the OD value [59] was 85 OD and the OD value [60] was 70 OD. The OD value [61] was 112 OD, the OD value [62] was 83 OD and the OD value [63] was 55 OD. It also gave an OD value [64] of 54 OD, an OD value [65] of 92 OD and an OD value [66] of 102 OD. It also gave an OD value [67] of 92 OD, an OD value [68] of 79 OD and an OD value [69] of 78 OD. For the same binder, the OD value [70] was 85 OD, the OD value [71] was 85 OD and the OD value [72] was 72 OD. For the same binder, the OD value [73] was 73 OD, the OD value [74] was 79 OD and the OD value [75] was 60 OD.
